These results are taken from PMC6177440, “Overlapping motifs on the herpes viral proteins ICP27 and ORF57 mediate interactions with the mRNA export adaptors ALYREF and UIF” (Scientific Reports, 2018).

T1: UIF N-terminal region (residues 1-190), recombinant (human, UniProt Q96QD9 1-190)
T1 construct: UIF, homo sapiens, Uniprot Q96QD9, residues 1-190, in pET-15b; source: T7 express E. coli, purified (TALON resin, size exclusion chromatography)
T1 sequence (looked up): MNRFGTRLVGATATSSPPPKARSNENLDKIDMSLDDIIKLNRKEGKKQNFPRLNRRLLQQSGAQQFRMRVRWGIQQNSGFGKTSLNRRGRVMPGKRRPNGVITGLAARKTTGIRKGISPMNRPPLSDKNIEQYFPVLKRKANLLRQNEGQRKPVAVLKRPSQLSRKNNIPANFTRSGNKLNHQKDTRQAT

T2: KSHV ORF57 residues 153-455 (KSHV, UniProt Q2HR75 153-455)
T2 construct: ORF57 of Kaposi sarcoma herpes virus (KSHV), residues 153-455, in pET-21a; The strep-II-tag and HRV-3C site lay between thioredoxin and ORF57; also called ksORF57Δ153; ORF57Δ153; source: T7 express E. coli, purified (strep-tag resin, HRV-3C cleavage, size exclusion chromatography); not shown: thioredoxin, N-terminal, cleaved; strep-II, N-terminal, cleaved
T2 sequence: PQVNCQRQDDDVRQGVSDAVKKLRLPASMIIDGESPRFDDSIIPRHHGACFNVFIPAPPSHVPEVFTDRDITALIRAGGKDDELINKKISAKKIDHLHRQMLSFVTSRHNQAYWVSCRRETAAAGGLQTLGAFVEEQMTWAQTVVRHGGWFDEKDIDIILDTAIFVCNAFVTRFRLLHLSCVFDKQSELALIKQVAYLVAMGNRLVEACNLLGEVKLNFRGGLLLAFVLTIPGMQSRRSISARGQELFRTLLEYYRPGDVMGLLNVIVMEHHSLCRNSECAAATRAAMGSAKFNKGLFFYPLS

B1: HSV-1 ICP27 residues 103-155 (domain or fragment)
chain: SVWSRLGARRPSCSPEQHGGKVARLQPPPTKAQPARGGRRGRRRGRGRGGPGA
notes: ICP27 of HSV-1, residues 103-155; Used 15N labelled; also called ICP27^103–155; source: purified
B2: KSHV ORF57 residues 68-178 (domain or fragment)
chain: GRIPKKSQGRSQLRSEIQFCSPLSRPRSPSPVNRYGKKIKFGTAGQNTRPPPEKRPRRRPRDRLQYGRTTRGGQCRAAPKRATRRPQVNCQRQDDDVRQGVSDAVKKLRLP
notes: ORF57 of Kaposi sarcoma herpes virus (KSHV), residues 68-178, in pET-15b; Used 15N labelled or unlabelled; also called ksORF57^68–178
B3: REF2-I (murine variant of ALYREF) residues 1-155 (domain or fragment)
chain: not shown
notes: Used 15N labelled or unlabelled; source: purified

What all share (settings): both partners purified
The target of assay [1] is B3. Description: NMR titration; 15N HSQC of the 15N labelled protein (target) without and with an equimolar amount of the unlabelled partner (binder); ca. 50 µM; 20 mM sodium phosphate, 50 mM NaCl, 50 mM L-Arg, 50 mM L-Glu, 1 mM EDTA, 2 mM TCEP, pH 6.2; 298 K.
Assay [2] concerns the target T1, UIF N-terminal region (residues 1-190), …. The assay is described as above.
Assay [3] deals with T2, KSHV ORF57 residues 153-455. Description: NMR titration; 15N HSQC of the 15N labelled REF2-I construct (target) without and with unlabelled ICP27Δ241 or ksORF57Δ153 (binder); ca. 50 µM; NMR buffer with EDTA decreased to 0.1 mM, pH 6.2; 298 K.

On to B1, for which the binding result in assay [1] and in assay [2] was “binds” in each case.

Turning to B2, the binding result in assay [1] and in assay [2] was “binds” each time.

With B3, the binding result in assay [3] is “binds”.
